Reference: article PMC4233142

Molecular target: YFPC-2aCore (hepatitis C virus genotype 2a (JFH-1)) (UniProt Q99IB8)
Assay: split reporter

YFPN-2a5B (from UniProt Q99IB8 2443-3033) (natural protein)
percent of RFP-expressing cells that also expressed YFP: 43%
